From the supplement of paper PMC5998384

What was measured:
[1] = test system: HeLa Kyoto; assay: thermal stability score vs G1/S (z-score of summed log2 fold changes over temperatures); higher = more thermally stable than in G1/S
[2] = test system: HeLa Kyoto; assay: melting temperature (median over replicates), in situ; higher = more thermally stable
[3] = test system: HeLa Kyoto; assay: solubility change mitosis vs G1/S (difference of NP-40 vs SDS log2 ratios) (log2 ratio difference); higher = more soluble in mitosis
[4] = test system: HeLa Kyoto; assay: solubility in G1/S (NP-40 vs SDS abundance) (log2 ratio); higher = more soluble; details: cell cycle stage: G1/S
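Throughout, for melting temperature (median over replicates), in situ: HeLa Kyoto cells synchronized by double thymidine or nocodazole block, proteins quantified by TMT10plex mass spectrometry, three independent biological replicates.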
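Throughout, for solubility change mitosis vs G1/S (difference of NP-40 vs SDS log2 ratios): synchronized HeLa Kyoto cells (double thymidine block for G1/S, nocodazole release for mitosis), protein amounts in NP-40 versus SDS lysates quantified by mass spectrometry, three biological replicates.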
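Throughout, for solubility in G1/S (NP-40 vs SDS abundance): HeLa Kyoto cells arrested at G1/S by double thymidine block, proteins quantified by TMT10plex mass spectrometry in mild NP-40 versus SDS extracts, three biological replicates.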
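Throughout, for thermal stability score vs G1/S (z-score of summed log2 fold changes over temperatures): synchronized HeLa Kyoto cells, proteins quantified by TMT10plex mass spectrometry, three biological replicates, mitosis taken 0.5 h after nocodazole release, G1/S directly after double thymidine block.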

Substance	thermal stability score ([1]; cell cycle stage: early G1 (4.5 h after nocodazole release))	thermal stability score ([1]; cell cycle stage: mitosis)	melting temperature ([2]; cell cycle stage: G1/S)	melting temperature ([2]; cell cycle stage: mitosis)	solubility change mitosis (log2) [3]	solubility in G1/S (log2) [4]
MSTNGDDHQVKDSLEQLRCHFTWELSIDDDEMPDLENRVLDQIEFLDTKYSVGIHNLLAYVKHLKGQNEEALKSLKEAENLMQEEHDNQANVRSLVTWGNFAWMYYHMGRLAEAQTYLDKVENICKKLSNPFRYRMECPEIDCEEGWALLKCGGKNYERAKACFEKVLEVDPENPESSAGYAISAYRLDGFKLATKNHKPFSLLPLRQAVRLNPDNGYIKVLLALKLQDEGQEAEGEKYIEEALANMSSQTYVFRYAAKFYRRKGSVDKALELLKKALQETPTSVLLHHQIGLCYKAQMIQIKEATKGQPRGQNREKLDKMIRSAIFHFESAVEKKPTFEVAHLDLARMYIEAGNHRKAEENFQKLLCMKPVVEETMQDIHFHYGRFQEFQKKSDVNAIIHYLKAIKIEQASLTRDKSINSLKKLVLRKLRRKALDLESLSLLGFVYKLEGNMNEALEYYERALRLAADFENSVRQGP [IFIT1]	1.47	2.07	49.1 °C	48.3 °C	-0.063	0.322
MSTGFSFGSGTLGSTTVAAGGTSTGGVFSFGTGASSNPSVGLNFGNLGSTSTPATTSAPSSGFGTGLFGSKPATGFTLGGTNTGIATTITTGLTLGTPATTSAATTGFSLGFNKPAASATPFALPITSTSASGLTLSSALTSTPAASTGFTLNNLGGTTATTTTASTGLSLGGALAGLGGSLFQSTNTGTSGLGQNALGLTLGTTAATSTAGNEGLGGIDFSSSSDKKSDKTGTRPEDSKALKDENLPPVICQDVENLQKFVKEQKQVQEEISRMSSKAMLKVQEDIKALKQLLSLAANGIQRNTLNIDKLKIETAQELKNAEIALRTQKTPPGLQHEYAAPADYFRILVQQFEVQLQQYRQQIEELENHLATQANNSHITPQDLSMAMQKIYQTFVALAAQLQSIHENVKVLKEQYLGYRKMFLGDAVDVFETRRAEAKKWQNTPRVTTGPTPFSTMPNAAAVAMAATLTQQQQPATGPQPSLGVSFGTPFGSGIGTGLQSSGLGSSNLGGFGTSSGFGCSTTGASTFGFGTTNKPSGSLSAGFGSSSTSGFNFSNPGITASAGLTFGVSNPASAGFGTGGQLLQLKKPPAGNKRGKR [NUP58]			54.1 °C	52.7 °C	0.234	0.542
ZFHX3			48.7 °C	49.3 °C	0.302	-0.242
MLRREARLRREYLYRKAREEAQRSAQERKERLRRALEENRLIPTELRREALALQGSLEFDDAGGEGVTSHVDDEYRWAGVEDPKVMITTSRDPSSRLKMFAKELKLVFPGAQRMNRGRHEVGALVRACKANGVTDLLVVHEHRGTPVGLIVSHLPFGPTAYFTLCNVVMRHDIPDLGTMSEAKPHLITHGFSSRLGKRVSDILRYLFPVPKDDSHRVITFANQDDYISFRHHVYKKTDHRNVELTEVGPRFELKLYMIRLGTLEQEATADVEWRWHPYTNTARKRVFLSTE [IMP4]				51.4 °C	0.914	-1.9
MVGEMETKEKPKPTPDYLMQLMNDKKLMSSLPNFCGIFNHLERLLDEEISRVRKDMYNDTLNGSTEKRSAELPDAVGPIVQLQEKLYVPVKEYPDFNFVGRILGPRGLTAKQLEAETGCKIMVRGKGSMRDKKKEEQNRGKPNWEHLNEDLHVLITVEDAQNRAEIKLKRAVEEVKKLLVPAAEGEDSLKKMQLMELAILNGTYRDANIKSPALAFSLAATAQAAPRIITGPAPVLPPAALRTPTPAGPTIMPLIRQIQTAVMPNGTPHPTAAIVPPGPEAGLIYTPYEYPYTLAPATSILEYPIEPSGVLGAVATKVRRHDMRVHPYQRIVTADRAATGN [QKI]			50.2 °C	49.8 °C	-0.0775	0.613
MADYWKSQPKKFCDYCKCWIADNRPSVEFHERGKNHKENVAKRISEIKQKSLDKAKEEEKASKEFAAMEAAALKAYQEDLKRLGLESEILEPSITPVTSTIPPTSTSNQQKEKKEKKKRKKDPSKGRWVEGITSEGYHYYYDLISGASQWEKPEGFQGDLKKTAVKTVWVEGLSEDGFTYYYNTETGESRWEKPDDFIPHTSDLPSSKVNENSLGTLDESKSSDSHSDSDGEQEAEEGGVSTETEKPKIKFKEKNKNSDGGSDPETQKEKSIQKQNSLGSNEEKSKTLKKSNPYGEWQEIKQEVESHEEVDLELPSTENEYVSTSEADGGGEPKVVFKEKTVTSLGVMADGVAPVFKKRRTENGKSRNLRQRGDDQ [WBP4]				54.7 °C	0.763	-0.703
MRKIDLCLSSEGSEVILATSSDEKHPPENIIDGNPETFWTTTGMFPQEFIICFHKHVRIERLVIQSYFVQTLKIEKSTSKEPVDFEQWIEKDLVHTEGQLQNEEIVAHDGSATYLRFIIVSAFDHFASVHSVSAEGTVVSNLSS [HSPB11]			53.3 °C	55.1 °C	-0.328	0.137
MKIGSGFLSGGGGTGSSGGSGSGGGGSGGGGGGGSSGRRAEMEPTFPQGMVMFNHRLPPVTSFTRPAGSAAPPPQCVLSSSTSAAPAAEPPPPPAPDMTFKKEPAASAAAFPSQRTSWGFLQSLVSIKQEKPADPEEQQSHHHHHHHHYGGLFAGAEERSPGLGGGEGGSHGVIQDLSILHQHVQQQPAQHHRDVLLSSSSRTDDHHGTEEPKQDTNVKKAKRPKPESQGIKAKRKPSASSKPSLVGDGEGAILSPSQKPHICDHCSAAFRSSYHLRRHVLIHTGERPFQCSQCSMGFIQKYLLQRHEKIHSREKPFGCDQCSMKFIQKYHMERHKRTHSGEKPYKCDTCQQYFSRTDRLLKHRRTCGEVIVKGATSAEPGSSNHTNMGNLAVLSQGNTSSSRRKTKSKSIAIENKEQKTGKTNESQISNNINMQSYSVEMPTVSSSGGIIGTGIDELQKRVPKLIFKKGSRKNTDKNYLNFVSPLPDIVGQKSLSGKPSGSLGIVSNNSVETIGLLQSTSGKQGQISSNYDDAMQFSKKRRYLPTASSNSAFSINVGHMVSQQSVIQSAGVSVLDNEAPLSLIDSSALNAEIKSCHDKSGIPDEVLQSILDQYSNKSESQKEDPFNIAEPRVDLHTSGEHSELVQEENLSPGTQTPSNDKASMLQEYSKYLQQAFEKSTNASFTLGHGFQFVSLSSPLHNHTLFPEKQIYTTSPLECGFGQSVTSVLPSSLPKPPFGMLFGSQPGLYLSALDATHQQLTPSQELDDLIDSQKNLETSSAFQSSSQKLTSQKEQKNLESSTGFQIPSQELASQIDPQKDIEPRTTYQIENFAQAFGSQFKSGSRVPMTFITNSNGEVDHRVRTSVSDFSGYTNMMSDVSEPCSTRVKTPTSQSYR [ZNF281]			45.1 °C	47.4 °C	0.0949	-0.357
MSDCYTELEKAVIVLVENFYKYVSKYSLVKNKISKSSFREMLQKELNHMLSDTGNRKAADKLIQNLDANHDGRISFDEYWTLIGGITGPIAKLIHEQEQQSSS [S100A16]			51.3 °C		0.301	-0.172
